Measured values published in article PMC6265350.

How the values were obtained:
[1] = biological target: T1, MtrA Y102C (unphosphorylated) Y102C (UniProt P9WGM7); test: EMSA; details: 50 mM Tris-HCl pH 7.5, 50 mM NaCl, 10 mM MgCl2, 10 mM CaCl2, […]
T1 sequence: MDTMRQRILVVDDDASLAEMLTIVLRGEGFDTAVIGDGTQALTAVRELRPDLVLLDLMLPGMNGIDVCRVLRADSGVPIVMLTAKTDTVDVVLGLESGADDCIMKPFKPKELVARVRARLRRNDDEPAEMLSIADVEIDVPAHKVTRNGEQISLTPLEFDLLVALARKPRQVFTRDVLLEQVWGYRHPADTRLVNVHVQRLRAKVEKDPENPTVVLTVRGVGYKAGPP

[2] = biological target: T2, MtrA Y102C~P Y102C (UniProt P9WGM7); test: EMSA; details: 50 mM Tris-HCl pH 7.5, 50 mM NaCl, 10 mM MgCl2, 10 mM CaCl2, […]
T2 sequence: T1 sequence

CTGTGCAGAGTAGGTGATCGGCGGCCCGACCGCGAGGAGCCGCGCTGTGACTGGCGGGACGAAAGTTACAGATGAAGATATTTGCGTCCGGTGTCGGTGAGCACGCTGCGCAGGATGGTTTCGATGGTGTCGAACTCGGGCTGTCCGCTAATCAGCGGGGGAGCCACCTGGACGACGGGGTCCCCGCGGTCGTCGGTG (double strand) [PdacB1]
binding [1]: binds | binding [2]: binds
